In patent publication US20030044899A1:

Target: integrin α3β1 (human) (UniProt P26006)
Test: cell-based or functional assay

Chain of UniProt P26006 (P26006 33-1051, chain 1 of 2): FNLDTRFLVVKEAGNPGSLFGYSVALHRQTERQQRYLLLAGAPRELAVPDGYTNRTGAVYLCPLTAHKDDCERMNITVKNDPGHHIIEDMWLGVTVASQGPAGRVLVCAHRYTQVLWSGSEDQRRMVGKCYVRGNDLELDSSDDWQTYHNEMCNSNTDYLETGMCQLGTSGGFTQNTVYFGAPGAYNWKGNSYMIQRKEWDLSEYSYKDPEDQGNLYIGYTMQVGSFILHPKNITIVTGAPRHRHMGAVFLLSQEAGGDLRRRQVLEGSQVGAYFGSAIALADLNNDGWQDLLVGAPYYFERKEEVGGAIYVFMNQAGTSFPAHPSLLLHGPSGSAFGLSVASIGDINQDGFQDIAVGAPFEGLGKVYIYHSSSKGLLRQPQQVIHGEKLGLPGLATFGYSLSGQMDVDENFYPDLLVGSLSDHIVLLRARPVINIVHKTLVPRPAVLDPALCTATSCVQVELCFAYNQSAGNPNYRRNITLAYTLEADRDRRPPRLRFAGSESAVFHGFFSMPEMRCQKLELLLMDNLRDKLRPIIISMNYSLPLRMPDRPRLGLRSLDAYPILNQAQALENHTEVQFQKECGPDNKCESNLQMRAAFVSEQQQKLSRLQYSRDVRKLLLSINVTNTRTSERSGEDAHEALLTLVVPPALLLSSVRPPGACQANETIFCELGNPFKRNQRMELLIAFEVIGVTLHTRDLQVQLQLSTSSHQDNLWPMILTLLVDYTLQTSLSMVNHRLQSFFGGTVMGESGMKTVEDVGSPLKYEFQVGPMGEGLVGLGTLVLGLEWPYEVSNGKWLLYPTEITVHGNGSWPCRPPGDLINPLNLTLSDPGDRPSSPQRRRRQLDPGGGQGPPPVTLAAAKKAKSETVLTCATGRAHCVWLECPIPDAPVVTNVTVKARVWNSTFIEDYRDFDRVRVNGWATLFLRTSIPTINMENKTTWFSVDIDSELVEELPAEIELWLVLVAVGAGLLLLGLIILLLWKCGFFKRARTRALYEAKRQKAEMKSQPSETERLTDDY
Chain of UniProt P26006 (P05556 21-798, chain 2 of 2, further chain): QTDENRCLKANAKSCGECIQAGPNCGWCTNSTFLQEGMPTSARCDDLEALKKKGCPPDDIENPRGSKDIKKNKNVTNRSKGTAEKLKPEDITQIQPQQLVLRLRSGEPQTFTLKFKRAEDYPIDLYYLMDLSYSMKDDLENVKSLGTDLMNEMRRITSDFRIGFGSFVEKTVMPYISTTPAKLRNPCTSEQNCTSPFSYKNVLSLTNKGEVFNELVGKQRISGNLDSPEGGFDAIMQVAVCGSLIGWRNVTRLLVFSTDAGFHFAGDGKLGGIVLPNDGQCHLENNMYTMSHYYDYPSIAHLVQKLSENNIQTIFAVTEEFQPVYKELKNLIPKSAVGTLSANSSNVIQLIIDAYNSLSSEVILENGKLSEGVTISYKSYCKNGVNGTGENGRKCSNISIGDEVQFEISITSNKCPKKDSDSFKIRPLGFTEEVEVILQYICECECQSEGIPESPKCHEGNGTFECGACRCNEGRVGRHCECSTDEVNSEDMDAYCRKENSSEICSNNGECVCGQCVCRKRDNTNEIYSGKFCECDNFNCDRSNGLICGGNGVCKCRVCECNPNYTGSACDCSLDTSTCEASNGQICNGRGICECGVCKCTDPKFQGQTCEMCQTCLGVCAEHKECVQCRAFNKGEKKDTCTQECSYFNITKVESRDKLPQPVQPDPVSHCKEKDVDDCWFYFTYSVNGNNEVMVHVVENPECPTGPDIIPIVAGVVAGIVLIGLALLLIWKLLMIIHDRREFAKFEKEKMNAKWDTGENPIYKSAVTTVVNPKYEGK

recombinant laminin-10 (human α5β1γ1 heterotrimer, α5 chain with C-terminal FLAG epitope) (from UniProt P07942 22-1786; P11047 34-1609) (ligand)
inhibition of HT-1080 cell binding to r-laminin-10 by mAbs against either α3 or β1: 80%
